A word on the Ki: it is a dissociation constant, usually derived from enzyme kinetics or from competition with a known ligand. A higher Ki goes with lower affinity.

Where a chain is given by its changes, count along the chain named. Numbers in names are those of the source. Where no end group is shown, it is not given here.

These results are taken from US5618696A, “Human kunitz-type protease inhibitor and variants thereof” (Novo Nordisk A/S, priority 1992, dated 1997).

Data set [1] can be described thus: Net charge of the inhibitor. The class given is physicochemical.
For data set [2], the target named is T1, Human neutrophil cathepsin G (Homo sapiens, UniProt P08311).
T1 construct: Human neutrophil cathepsin G and elastase were purified from extracts of PMNs; from tissue; host or cells: human polymorphonuclear leukocytes (PMNs), method of Baugh and Travis
T1 sequence (P08311 21-255): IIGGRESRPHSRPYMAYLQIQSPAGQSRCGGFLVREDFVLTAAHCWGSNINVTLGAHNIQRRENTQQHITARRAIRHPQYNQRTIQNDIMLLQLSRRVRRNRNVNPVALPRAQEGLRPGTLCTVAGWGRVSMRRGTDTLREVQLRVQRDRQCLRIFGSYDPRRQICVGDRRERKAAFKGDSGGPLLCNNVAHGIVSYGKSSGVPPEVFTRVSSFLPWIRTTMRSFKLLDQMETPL
In words: Inhibition of cathepsin G by HKIB9 variants. Type of data set: biochemical. Particulars: at 1 μM. The method, then:
(§1) Their concentration was determined from the absorbance at 214 nm using aprotinin as a standard. Porcine trypsin was obtained from Novo Nordisk A/S, bovine chymotrypsin (TLCK treated) was obtained from Sigma Chemical Co. (St. Louis, Mo., U.S.A.). Human neutrophil cathepsin G and elastase were purified from extracts of PMNs according to the method described by Baugh and Travis, Biochemistry 15, 1976, pp. 836-843.
(§2) Peptidyl nitroanilide substrates S2251 and S2586 were obtained from Kabi (Stockholm, Sweden). S7388 and M4765 were obtained from Sigma Chemical Co.
(§3) Serine proteinases were incubated with various concentrations of the variants for 30 minutes. Substrate was then added and residual proteinase activity was measured at 405 nm.

Another data set deals with T2, Porcine trypsin (Sus scrofa, UniProt P00761).
T2 construct: purchased Novo Nordisk A/S
T2 sequence (P00761 9-231): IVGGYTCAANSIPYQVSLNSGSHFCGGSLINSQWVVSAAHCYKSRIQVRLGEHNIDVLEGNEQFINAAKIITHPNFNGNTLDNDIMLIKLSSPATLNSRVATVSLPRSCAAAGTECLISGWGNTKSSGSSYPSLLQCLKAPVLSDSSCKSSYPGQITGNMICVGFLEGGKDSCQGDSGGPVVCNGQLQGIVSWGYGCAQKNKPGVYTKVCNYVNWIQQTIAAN
In words: Inhibition of trypsin by HKIB9 variants. Particulars: at 1 μM. The class given is biochemical. Here is the method: as §1, §2, §3

The target of data set [3] is T3, bovine chymotrypsin (TLCK treated) (Bos taurus, UniProt P00766).
T3 construct: purchased Sigma Chemical Co. (St. Louis, Mo., U.S.A.)
In words: Inhibition of chymotrypsin by HKIB9 variants. Type of data set: biochemical. Particulars: at 1 μM. Here is the method: as §1, §2, §3

The target in the next data set is T4, granulocyte elastase (Homo sapiens, UniProt P08246).
T4 sequence (P08246 30-267): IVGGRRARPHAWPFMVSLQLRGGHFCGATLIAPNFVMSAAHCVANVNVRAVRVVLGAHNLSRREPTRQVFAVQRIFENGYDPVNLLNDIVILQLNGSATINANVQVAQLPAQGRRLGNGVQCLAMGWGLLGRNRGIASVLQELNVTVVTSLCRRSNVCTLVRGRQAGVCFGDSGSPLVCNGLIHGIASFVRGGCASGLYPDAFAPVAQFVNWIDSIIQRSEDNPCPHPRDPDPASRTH
Particulars: cited from earlier work.

The target of the next data set is plasmakallikrein (Homo sapiens, UniProt P03952). Conditions: cited from earlier work.
Chain of plasmakallikrein (P03952 20-638, species assumed): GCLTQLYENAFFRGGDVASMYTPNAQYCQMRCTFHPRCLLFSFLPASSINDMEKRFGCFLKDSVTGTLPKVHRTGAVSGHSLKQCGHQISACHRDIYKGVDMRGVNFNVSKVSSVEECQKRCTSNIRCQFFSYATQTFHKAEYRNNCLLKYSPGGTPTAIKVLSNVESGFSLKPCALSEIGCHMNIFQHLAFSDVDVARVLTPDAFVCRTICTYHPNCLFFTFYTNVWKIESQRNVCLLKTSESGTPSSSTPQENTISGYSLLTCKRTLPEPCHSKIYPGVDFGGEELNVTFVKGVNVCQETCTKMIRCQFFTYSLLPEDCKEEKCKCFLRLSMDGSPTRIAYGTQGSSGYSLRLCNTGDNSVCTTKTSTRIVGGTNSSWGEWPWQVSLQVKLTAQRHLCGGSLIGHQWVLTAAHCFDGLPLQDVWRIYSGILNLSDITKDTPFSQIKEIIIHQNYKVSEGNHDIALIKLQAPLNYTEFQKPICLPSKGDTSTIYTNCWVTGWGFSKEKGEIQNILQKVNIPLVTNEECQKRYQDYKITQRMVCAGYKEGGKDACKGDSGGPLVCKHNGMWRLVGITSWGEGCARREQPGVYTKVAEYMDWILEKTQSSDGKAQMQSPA
For data set [4] the following is noted: high doses, including cardiopulmonary bypass operations; cited from earlier work.
The subject of a further data set is collagenase. Conditions: cited from earlier work.
The target of data set [5] is bovine chymotrypsin (TLCK treated) (bovine) (UniProt P00766).
Data set [6] deals with Human neutrophil elastase (human, UniProt P08246). In words: enzyme inhibition: proteinase incubated with various concentrations of the variant for 30 min, residual activity on peptidyl nitroanilide substrate at 405 nm. Here is the method: as §3

With “HKI B9: novel human Kunitz-type protease inhibitor domain, SEQ ID No. 1, produced from yeast strain KFN-1830 (DLLPNVCAFPMEKGPCQTYMTRWFFNFETGECELFAYGGCGGNSNNFLRKEKCEKFCKFT)”, the net charge entry in [1] is “zero”.
With “[Q15V, T16A]-HKIB9 (DLLPNVCAFPMEKGPCVAYMTRWFFNFETGECELFAYGGCGGNSNNFLRKEKCEKFCKFT) [KFN 1930, HKIB9 Kunitz domain variant produced from yeast strain KFN-1930 (plasmid pKFN-1916)]”, the “inhibition of cathepsin G” value in data set [2] is recorded as “not to inhibit”. Moreover, the inhibition of trypsin entry with Porcine trypsin is on record as “not to inhibit”. Besides, in data set [3], the inhibition of chymotrypsin is given as 5%.
For the molecule “[Q15V, T16G]-HKIB9 (DLLPNVCAFPMEKGPCVGYMTRWFFNFETGECELFAYGGCGGNSNNFLRKEKCEKFCKFT) [KFN 1902, HKIB9 Kunitz domain variant produced from yeast strain KFN-1902 (plasmid pKFN-1892)]”, the “inhibition of cathepsin G” value in data set [2] is given as “not to inhibit”. Besides, the inhibition of trypsin entry with Porcine trypsin was “not to inhibit”. In data set [3], this molecule displayed an inhibition of chymotrypsin of 5%.
In the case of aprotinin (1-58, Ala15), the “effect on / selectivity for granulocyte elastase” value on granulocyte elastase was “weak effect”.
As for aprotinin (3-58, Arg15, Ala17, Ser42), the plasmakallikrein inhibitory effect entry at plasmakallikrein was “excellent”.
aprotinin [reference compound]: the net charge result in data set [1] is on record as “strongly positive”. Further, the “blood loss in connection with cardiac surgery” value in data set [4] was “significantly reduces blood loss”.
In the case of aprotinin(1-58, Val15), in the data set on collagenase, the effect on collagenase entry was “inhibitory effect”. In addition, the “effect on / selectivity for granulocyte elastase” value at granulocyte elastase is given as “relatively high selectivity”.

B1: [Q15V, T16G]-HKIB9 (other)
chain: DLLPNVCAFPMEKGPCVGYMTRWFFNFETGECELFAYGGCGGNSNNFLRKEKCEKFCKFT
modifications: ends and bridges not checked; cysteine pairing not given here
Molecule B1 showed a residual proteinase activity measured at 405 nm in data set [5] of 5%. Besides, affinity in data set [6] was put at a Ki of 140 nM.

B2: [Q15V, T16A]-HKIB9 (other)
chain: B1 chain with G18A
modifications: ends and bridges not checked; cysteine pairing not given here
In [5], B2 had a residual proteinase activity measured at 405 nm of 5%. This molecule also showed a Ki in data set [6] of 64 nM.
